Self-aminoacylation data for 70 sequences are collected here from the supplement of paper PMC9233669.

Variants at the floor of the assay were thinned out.

One data set deals with biotinyl-Trp-oxazolone. In words: self-aminoacylation, catalytic enhancement (BWO) (fold over background); higher = more active; k-Seq, kA / k0A0; sequences stand for … in GGGAAUGGAUCCACAUCUACGAAUUC…UUCACUGCAGACUUGACGAAGCUG
The method in brief:
(§1)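 Each biotinyl-aminoacyl-oxazolone, at 2–1250 μM, was incubated with mutagenized RNA pools (0.43 μM) carrying a 21-nt variable region. The 50 μL reactions contained HEPES/NaCl/KCl/MgCl2/CaCl2 buffer with 5% acetonitrile at pH 6.9–7.0 and ran for 90 minutes at room temperature. After streptavidin capture, RNA was measured by qPCR in triplicate and by Illumina sequencing, and catalytic enhancement was calculated as median kA over the uncatalyzed rate from a pseudo-first-order fit of per-sequence fraction reacted.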
Regarding “GUACUACAAACAAUCGGUCUG [Fam1A.1 aminoacylation ribozyme variant]”, the self-aminoacylation was 2.14.

On to “AAGUUAGCUAGUAGUCGCAAG [Fam3.1 aminoacylation ribozyme variant]”, for which the self-aminoacylation stood at 2.01. On the same count and under the same terms, to “CCACACUGCAAGCCAUCGGUC [Fam1B.1 aminoacylation ribozyme variant]” belongs 2.76. Same read-out and setting: to “AAGAUUGCUAAUUGUCGCAAG [Fam3.1 aminoacylation ribozyme variant]” belongs 3.92.

In another data set the test system is biotinyl-Phe-oxazolone. The data set is described as follows: self-aminoacylation, catalytic enhancement (BFO) (fold over background); higher = more active; k-Seq, kA / k0A0; sequences stand for … in GGGAAUGGAUCCACAUCUACGAAUUC…UUCACUGCAGACUUGACGAAGCUG
The essentials:
as §1
“CUACUUCAAACAAGCGGUCGG [Fam1A.1 aminoacylation ribozyme variant]”: the self-aminoacylation is 3.68. As to “AAGAUUGCUGAUAGUCGCAAG [Fam3.1 aminoacylation ribozyme variant]”, the self-aminoacylation was 2.57.

Take “AAGUUAGUUAAUAGUCGCAAG [Fam3.1 aminoacylation ribozyme variant]”: the self-aminoacylation was found to be 2.7.

“CAGUUUGCUAAGAGUCGCAAG [Fam3.1 aminoacylation ribozyme variant]”: the self-aminoacylation is 2.85. The same measure, in the same setting: to “AAGUUUUCUAAUAGUCGUAAG [Fam3.1 aminoacylation ribozyme variant]” belongs 2.29.

On to “AAGUUUCCUACUAGUCGCAAG [Fam3.1 aminoacylation ribozyme variant]”, for which the self-aminoacylation was determined as 2.54. The same measure, in the same setting: to “UUACUUCAAACAUUCGGUCUG [Fam1A.1 aminoacylation ribozyme variant]” belongs 2.03. Same read-out and setting: to “AAGUUUGCUAAUGGUCGCAAU [Fam3.1 aminoacylation ribozyme variant]” belongs 3.15; to “AUUCACCAAGGUCAUCGGGUC [Fam2.2 aminoacylation ribozyme variant]”, 3.27; to “AUUCACCUGGGUCAUCGGGUC [Fam2.2 aminoacylation ribozyme variant]”, 5.84. On the same count and under the same terms, the figure for “AAGUUUUCAAAUAGUCGCAAG [Fam3.1 aminoacylation ribozyme variant]” is 2.08; for “AAGUUUCCUAAUAGUCGCCAG [Fam3.1 aminoacylation ribozyme variant]” it is 2.94. Take “AAGUUUGCUAAUAGUCAAAAG [Fam3.1 aminoacylation ribozyme variant]”: the self-aminoacylation is 3.26. Consider “AAGUCUGCUAAUAGUCGCAAA [Fam3.1 aminoacylation ribozyme variant]”, for which the self-aminoacylation was determined as 2.14. As to “CAGUUUGCUAAUAGUCGCAAC [Fam3.1 aminoacylation ribozyme variant]”, the self-aminoacylation amounted to 2.78.

Take “AUUAGCUUGGUCAUCGAGUGA [Fam2.1 aminoacylation ribozyme variant]”: the self-aminoacylation is 2.2.

“AUUCACCUCGGUCAUCGUGUG [Fam2.2 aminoacylation ribozyme variant]”: the self-aminoacylation turned out to be 3.14. Take “AAGUUUGCUAAUAGUUGCGAG [Fam3.1 aminoacylation ribozyme variant]”: the self-aminoacylation worked out at 2.61.

As to “GUUACCCUGGUCAUCGAUUGA [Fam2.1 aminoacylation ribozyme variant]”, the self-aminoacylation came to 2.77.

Consider “AAGUUUCCUUAUAGUCGCAAG [Fam3.1 aminoacylation ribozyme variant]”, for which the self-aminoacylation worked out at 2.75. Turning to “AUUCACCUGGGUCAUCGUGUG [Fam2.2 aminoacylation ribozyme variant]”, the self-aminoacylation turned out to be 4.81.

As to “AAGUUUUCUAAUAGUCGCUAG [Fam3.1 aminoacylation ribozyme variant]”, the self-aminoacylation amounted to 2.43. Consider “AAGUGUGCUAAUAGUGGCAAG [Fam3.1 aminoacylation ribozyme variant]”, for which the self-aminoacylation was 2.86. Same read-out and setting: the figure for “AAUUUUGCUAAUAAUCGCAAG [Fam3.1 aminoacylation ribozyme variant]” is 2.03. The same measure, in the same setting: to “AAAUUUGCUAAUAGUCGGAAG [Fam3.1 aminoacylation ribozyme variant]” belongs 2.57. In the case of “AUUCACCUAGGUCGUCGGGUU [Fam2.2 aminoacylation ribozyme variant]”, the self-aminoacylation was found to be 3.1. On to “AAGUUUUCUAAUAGUCGAAAG [Fam3.1 aminoacylation ribozyme variant]”, for which the self-aminoacylation amounted to 2. On the same count and under the same terms, the figure for “AAGUUGGCUAAUAGUCCCAAG [Fam3.1 aminoacylation ribozyme variant]” is 2.06; for “AAGUUUGCGAAUAGGCGCAAG [Fam3.1 aminoacylation ribozyme variant]” it is 9.76; for “ACGUUUGCUAAUAGUCCCAAG [Fam3.1 aminoacylation ribozyme variant]” it is 2. The same measure, in the same setting: to “CCAAACUUCGAGCAAUCGGUC [Fam1B.1 aminoacylation ribozyme variant]” belongs 2.34; to “UUACUUCAAACAAGCGGUCUG [Fam1A.1 aminoacylation ribozyme variant]”, 6.3; to “CUAGUUCAAACAUUCGGUCUG [Fam1A.1 aminoacylation ribozyme variant]”, 6.01.

Consider “AAGUUUGCUGAUAGUCGCAGG [Fam3.1 aminoacylation ribozyme variant]”, for which the self-aminoacylation stood at 2.42. As for “AAGUUUGCGAAUAGCCGCAAG [Fam3.1 aminoacylation ribozyme variant]”, the self-aminoacylation came to 4.03.

On to “AAGUUUCAUAAUAGUCGCAAG [Fam3.1 aminoacylation ribozyme variant]”, for which the self-aminoacylation is 2.19. As for “CUACUUCAAACCAUCGGUCGG [Fam1A.1 aminoacylation ribozyme variant]”, the self-aminoacylation turned out to be 3.15.

For “AGUACCCUGGUCAUCGAGUGC [Fam2.1 aminoacylation ribozyme variant]”, the self-aminoacylation was 2.36. Still for that read-out and setting: to “AUUUACCUAGGUCAUCGGCUG [Fam2.2 aminoacylation ribozyme variant]” belongs 2.16. For the sequence “AAGUUUGCUAAUAGCCGCAAU [Fam3.1 aminoacylation ribozyme variant]”, the self-aminoacylation came out at 2.22. In the case of “AUUACCCUGGUCAUCAAGUGU [Fam2.1 aminoacylation ribozyme variant]”, the self-aminoacylation amounted to 2.34. As to “AUUCACCUAGGUUAUCGUGUG [Fam2.2 aminoacylation ribozyme variant]”, the self-aminoacylation came out at 2.6. Turning to “AAUCACCUAGGUCAUCGUGUG [Fam2.2 aminoacylation ribozyme variant]”, the self-aminoacylation was determined as 5.37. “AAGUUUGCUAACAGUCGGAAG [Fam3.1 aminoacylation ribozyme variant]”: the self-aminoacylation worked out at 6.87.

As for “AUUGCCCUGGUCGUCGAGUGA [Fam2.1 aminoacylation ribozyme variant]”, the self-aminoacylation came out at 8.62. With “AUUCACCUAGGUCAUCAUGUG [Fam2.2 aminoacylation ribozyme variant]”, the self-aminoacylation turned out to be 2.12. Still for that read-out and setting: the figure for “CUAGUUCAGACAAUCGGUCUG [Fam1A.1 aminoacylation ribozyme variant]” is 2.61; for “CAGUUUGCUAAUAGUCGCAGG [Fam3.1 aminoacylation ribozyme variant]” it is 3.45; for “AUGUUUGUUAAUAGUCGCAAG [Fam3.1 aminoacylation ribozyme variant]” it is 2.31. Still for that read-out and setting: the figure for “AAGUUUUCUAAUAGUUGCAAG [Fam3.1 aminoacylation ribozyme variant]” is 2.94; for “AAGUUUGGUAAUAGUCGCGAG [Fam3.1 aminoacylation ribozyme variant]” it is 2.51. On the same count and under the same terms, to “GAGUUUGCUGAUAGUCGCAAG [Fam3.1 aminoacylation ribozyme variant]” belongs 3.71. For “AUGUUUGCGAAUAGUCGCAAG [Fam3.1 aminoacylation ribozyme variant]”, the self-aminoacylation is 2.47. With “CUGCUUCAAACAAUCGUUCUG [Fam1A.1 aminoacylation ribozyme variant]”, the self-aminoacylation worked out at 2.08. “AAGUUUGAUAAUAGUCGCAAU [Fam3.1 aminoacylation ribozyme variant]”: the self-aminoacylation stood at 2.12.

“AUUCUCCUAGGUCAUCGGUUG [Fam2.2 aminoacylation ribozyme variant]”: the self-aminoacylation amounted to 6.63. As for “AUUACCCUGGCCAUCGACUGA [Fam2.1 aminoacylation ribozyme variant]”, the self-aminoacylation turned out to be 2.83. Still for that read-out and setting: the figure for “AAGAUUGCUAACAGUCGCAAG [Fam3.1 aminoacylation ribozyme variant]” is 2.49; for “CUACUGCAAACACUCGGUCUG [Fam1A.1 aminoacylation ribozyme variant]” it is 5.64; for “AAGUUUGUUCAUAGUCGCAAG [Fam3.1 aminoacylation ribozyme variant]” it is 2.01. In the case of “AAGUUAGCUAAUAGUCGCUAG [Fam3.1 aminoacylation ribozyme variant]”, the self-aminoacylation is 2.36. Same read-out and setting: to “CAGUUUUCUAAUAGUCGCAAG [Fam3.1 aminoacylation ribozyme variant]” belongs 2.91; to “CUACUCCAAUCAAUCGGUCUG [Fam1A.1 aminoacylation ribozyme variant]”, 2.36; to “CAGUUUGCUAAUAGUCCCAAG [Fam3.1 aminoacylation ribozyme variant]”, 2.32. The same measure, in the same setting: the figure for “AAGAUUGCUAAUAGUCGCAAC [Fam3.1 aminoacylation ribozyme variant]” is 2.08.

Regarding “AUGCACCUAGGUCAUCGGGUC [Fam2.2 aminoacylation ribozyme variant]”, the self-aminoacylation was 7.15.
